For one data set, the system named is SKMEL147 cells. Kind of data set: Melanoma cell line viability assay (CellTiter-Glo). In kind it is cell-based, human. The note with it: ADC 1×10^−4 to 10 μg/mL, 5 days.
For another data set, the system named is A875 cells. Kind of data set: Melanoma cell line viability assay (CellTiter-Glo). The class given is cell-based, human. The settings on record: ADC 1×10^−4 to 10 μg/mL, 5 days. For orientation: ATP-based viability assays read luminescence as a measure of living cells.
The test system of the next data set is A375R cells. Kind of data set: Melanoma cell line viability assay (CellTiter-Glo). The note with it: ADC 1×10^−4 to 10 μg/mL, 5 days. The class given is cell-based, human.
The subject of a further data set is SKMEL28 cells. Kind of data set: Melanoma cell line viability assay (CellTiter-Glo). In kind it is cell-based, human. The settings on record: ADC 1×10^−4 to 10 μg/mL, 5 days.
The subject of another data set is SKMEL28R cells. Kind of data set: Melanoma cell line viability assay (CellTiter-Glo). In kind it is cell-based, human. The note with it: ADC 1×10^−4 to 10 μg/mL, 5 days.
A further data set concerns M016 cells. Kind of data set: Patient-derived low passage melanoma culture viability assay. The note with it: ADC 8 days. The class given is cell-based, human.
A further data set has as its system M019R cells. The data set is described as above. In kind it is cell-based, human. The settings on record: ADC 8 days.
The subject of a further data set is M082 cells. The data set is described as above. The class given is cell-based, human. The note with it: ADC 8 days.
Another data set relates to PC9-ER cells. Kind of data set: In vitro cytotoxicity assay, erlotinib-resistant NSCLC cell line. In kind it is cell-based, human.
Data set [1] relates to LCLC-103H xenograft tumors. Kind of data set: Therapeutic LCLC-103H xenograft model. In kind it is in vivo, SCID mice. How it is done:
5×10^6 LCLC-103H (large cell lung carcinoma) tumor cells (obtained from Leibniz-Institut DSMZ-Deutsche Sammlung von Mikroorganismen and Zellkulturen GmbH (DSMZ)) in 200 μL PBS were injected subcutaneously in the right flank of female SCID mice. Starting 14-21 days after tumor cell inoculation, when the average tumor size was >100-200 mm^3 and distinct tumor growth was observed, a single injection with 1 mg/kg (20 μg/mouse) IgG1-AXL-vcMMAE antibodies (as described in Supplementary Example 1) or control (unconjugated IgG1-b12) was given intraperitoneally (100 μL/mouse). Tumor volume was determined at least two times per week. Tumor volumes (mm^3) were calculated from caliper (PLEXX) measurements as: 0.52×(length)×(width)^2.
(§1) Tumor induction was performed by subcutaneous injection of 5×10^6 A431 or LCLC-103H tumor cells (both obtained from Leibniz-Institut—Deutsche Sammlung von Mikroorganismen and Zellkulturen GmbH (DSMZ)) in 200 μL PBS in the right flank of female SCID mice. Treatment was started 14-21 days after tumor cell inoculation, when the average tumor size was >100-200 mm^3 and distinct tumor growth was observed. Mice received a single injection or a total of 4 biweekly intraperitoneal injections with IgG1-AXL-vcMMAE ADCs or control antibody (unconjugated IgG1-b12), as indicated. Tumor volume was determined at least two times per week. Tumor volumes (mm^3) were calculated from caliper (PLEXX) measurements as: 0.52×(length)×(width)2.

A further data set concerns A431 tumors. Kind of data set: Therapeutic A431 xenograft model. In kind it is in vivo, SCID mice. The settings on record: 3 mg/kg intraperitoneally, model produces high levels of Gas6. How it is done: as §1
Another data set relates to CEXF 773 tumors. Kind of data set: Cervix carcinoma PDX model CEXF 773. In kind it is in vivo, NMRI nu/nu mice. The note with it: 4 mg/kg i.v. on day 0 and day 7. How it is done: The anti-tumor activity of IgG1-AXL-183-vcMMAE and IgG1-AXL-726-vcMMAE was evaluated in the patient derived cervix carcinoma xenograft CEXF 773 model in NMRI nu/nu mice (Harlan, Netherlands). Experiments were performed by Oncotest (Freiburg, Germany).
Tumor fragments were obtained from xenografts in serial passage in nude mice. After removal from donor mice, tumors were cut into fragments (4-5 mm diameter) and placed in PBS (with 10% penicillin/streptomycin) until subcutaneous implantation. Mice under isofluorane anesthesia received unilateral, subcutaneous tumor implants in the flank. Tumors were allowed to grow until the tumor volume was 50-250 mm^3.
The treatment groups were: IgG1-b12, IgG1-b12-vcMMAE, IgG1-AXL-183-vcMMAE and IgG1-AXL-726-vcMMAE. The antibodies and ADCs were dosed intravenously (i.v.) at 4 mg/kg on the day of randomization (day 0) and on day 7. Tumor volumes (mm^3) were monitored twice weekly and were calculated from caliper (PLEXX) measurements as: 0.52×(length)×(width)^2.

The subject of a further data set is MDA-MB-231 tumors. Kind of data set: Orthotopic MDA-MB-231-luc D3H2LN breast cancer xenograft model. In kind it is in vivo, SCID mice. The settings on record: 4 biweekly doses of 3 mg/kg. How it is done: The anti-tumor activity of IgG1-AXL-183-vcMMAE and IgG1-AXL-726-vcMMAE was evaluated in an orthotopic MDA-MB-231 D3H2LN xenograft model.
MDA-MB-231-luc D3H2LN Bioware cells (mammary gland adenocarcinoma; Perkin Elmer, Waltham, Mass.) were implanted in the mammary fat pad of 6-11 week old, female SCID (C.B-17/IcrPrkdc-scid/CRL) mice (Charles-River) under isofluorane anesthesia. Tumors were allowed to grow and mice were randomized when tumors reached a volume of ^˜325 mm^3. […] The treatment groups were: IgG1-b12, IgG1-b12-vcMMAE, IgG1-AXL-183-vcMMAE and IgG1-AXL-726-vcMMAE. The animals received a total of 4 biweekly doses of 3 mg/kg antibody or ADC starting at the day of randomization. Tumor volumes (mm^3) were monitored twice weekly and were calculated from caliper (PLEXX) measurements as: 0.52×(length)×(width)^2.

The test system of another data set is PAXF1657 tumors. Kind of data set: PAXF1657 pancreas cancer PDX model. In kind it is in vivo, NMRI nu/nu mice. How it is done: Human pancreas tumor tissue was subcutaneously implanted in the left flank of 5-7 weeks old female NMRI nu/nu mice. […] At day of randomization (day 0), the 3 ADCs were dosed intravenously (i.v.) at either 4 mg/kg or 2 mg/kg, and the control group received a single dose of IgG1-b12 (4 mg/kg). Tumor volumes (mm^3) were monitored twice weekly and were calculated from caliper (PLEXX) measurements as: 0.52×(length)×(width)^2.

The test system of the next data set is LCLC-103H cells. The settings on record: 5 days.
The test system of a further data set is A431 cells. The note with it: A431 (n = 3), 5 days.
Another data set deals with MDA-MB231 cells. The settings on record: MDA-MB231 (n = 2), 5 days.
[2] abbreviates: Example 13: 3 mg/kg intraperitoneally.

Substitutions are numbered along the chain they refer to.

In the case of `CCCS(=O)(=O)Nc1ccc(F)c(C(=O)c2c[nH]c3ncc(Cl)cc23)c1F` [PLX4720, N-(3-(5-chloro-1H-pyrrolo[2,3-b]pyridine-3-carbonyl)-2,4-difluorophenyl)propane-1-sulfonamide, reference compound], the “sensitivity of the cell line to the substance” value is “resistant” in the data set on SKMEL147 cells; “sensitive” in the data set on A875 cells; “resistant” with A375R cells; “sensitive” with SKMEL28 cells; “resistant” with SKMEL28R cells. Moreover, the “sensitivity of the culture to the substance” value in the data set with M016 cells, in the data set with M019R cells and in the data set with M082 cells was “resistant” each time.
Regarding `C#Cc1cccc(Nc2ncnc3cc(OCCOC)c(OCCOC)cc23)c1` [erlotinib, reference compound], in the data set on PC9-ER cells, the “sensitivity of the cell line (cell viability)” value was “acquired resistance”.

B1: IgG1-AXL-183-vcMMAE: IgG1-AXL-183 (FN1-binder) conjugated to vcMMAE (conjugate)
VH: QVQLQQWGAGLLKPSETLSLTCAVYGGSFSGYYWSWIRQPPGKGLEWIGEINQSGSTNYNPSLKSRVTISVDTSKNQFSLKLSSVTAADTSVYYCASGNWDHFFDYWGQGTLVTVSS
VL: DIQMTQSPSSVSASVGDRVTITCRASQGISSWLAWYQHKPGKAPKLLIYATSSLQSGVTSRFSGSGSGTDFTLTISSLQPEDFATYYCQQAKSFPWTFGQGTKVEIK
Regarding B1, the anti-tumor activity result is on record as “induced tumor regression” in data set [1] (setting [2]), “induced growth inhibition” in the data set on A431 tumors, “induced tumor regression” in the data set with CEXF 773 tumors and “induced tumor regression” in the data set with MDA-MB-231 tumors.

B2: IgG1-AXL-148-vcMMAE: IgG1-AXL-148 conjugated at cysteines to vcMMAE (conjugate)
VH: EVQLLESGGGLVQPGGSLRLSCAASGFTFSSYAMTWVRQAPGKGLEWVSAISISGGSTFYADSVKGRFTISRDNSKNTLYLQMNSLRAEDTAVYYCRGYSGYVYDAFDFWGQGTMVTVSS
VL: DIQMTQSPSSLSASVGDRVTITCRASQGISNWLAWYQQKPEKAPKSLIYAASSLQSGVPSRFSGSGSGTDFTLTISSLQPEDFATYYCQQYNSYPLTFGGGTKVEIK
On to B2, for which the anti-tumor activity entry in [1] (Example 9: single injection 1 mg/kg intraperitoneally) is given as “induced tumor regression”; in data set [1] (setting [2]), “induced tumor regression”; in the data set on PAXF1657 tumors (2 mg/kg i.v. at day 0) it was “significantly reduced the growth”; in the data set on PAXF1657 tumors (4 mg/kg i.v. at day 0), “induced tumor regression”; in the data set with PAXF1657 tumors (dose not stated in the sentence (FIG. 10B, 10C)) it was “dose-dependent antitumor activity”; in the data set with A431 tumors it was “induced growth inhibition”. Also, in the data set on LCLC-103H cells, the “Cytotoxicity EC50” value worked out at 0.012 µg/mL. Also, the entries for the “Cytotoxicity EC50 Mean” value with A431 cells and with MDA-MB231 cells were 0.070 µg/mL and 0.012 µg/mL, respectively.

B3: IgG1-AXL-726-vcMMAE: IgG1-AXL-726 (FN2-binder) conjugated to vcMMAE (conjugate)
VH: QVQLQQWGAGLLKPSETLSLTCAIDGGSFSGYYWSWIRQPPGKGLEWIGEISHSGRTNYNPSLKSRVTISIDTSKNQFSLKLSSVAAADTAVYYCARFITMIRGAIITHFDYWGQGALVTVSS
VL: B2 VL with N31S, N92H, L96Y, G100Q, V104L
On to B3, for which the anti-tumor activity entry is on record as “induced tumor regression” in [1] (setting [2]), “induced growth inhibition” in the data set on A431 tumors, “induced tumor regression” with CEXF 773 tumors and “induced tumor regression” with MDA-MB-231 tumors.
